Patent US7432342B2, “Kinase anchor protein muteins, peptides thereof and related documents” (Sequenom, Inc., priority 2002, dated 2008)

Target: T1, RIα-D/D-GFP (Bos taurus, UniProt P00514)
T1 construct: The dimerization/docking (D/D) domain of RIα and full-length RIIα were each fused with green fluorescent protein (GFP); expressed in transfected cells; host or cells: 10T(1/2) cells
Assay: Co-localization of PKA regulatory domain with mitochondria-targeted AKB domain in 10T(1/2) cells (Example 3)
Assay type: cell-based
Details: C-terminal 156 residues of D-AKAP2 fused to D-AKAP1 mitochondrial anchoring domain
Excerpt: The 30 amino acid mitochondrial anchoring domain of D-AKAP1 (Chen et al. (1997) J. Biol. Chem., 272:15247-57; and Huang et al. (1997) J. Biol. Chem., 272:8057-8064) was fused to the C-terminal 156 residues of mouse (amino acids 217-372 of SEQ ID NO:55) and human (amino acids 507-662 of SEQ ID NO:64) D-AKAP2, respectively, followed by a Flag-tag and subcloned into pcDNA4 (Invitrogen, Carlsbad, Calif.). The dimerization/docking (D/D) domain of RIα and full-length RIIα were each fused with green fluorescent protein (GFP) and cloned into pEGFPN1 (Clontech, Palo Alto, Calif.). […] The AKB domain was detected by immuno-staining with monoclonal antibodies against the Flag-tag (Kodak, Rochester, N.Y.) followed by rhodamine-conjugated secondary antibody (Jackson Lab, Bar Harbor, Me.). […]
In this assay, the AKB domain within the C-terminal 156 residues of D-AKAP2 from mouse (Val) and human (Ile) was fused to the mitochondrial anchoring domain from D-AKAP1 and tethered to the outer mitochondrial membrane (Chen et al. (1997) J. Biol. Chem., 272:15247-15257; and Huang et al. (1997) J. Biol. Chem., 272:8057-8064). The binding of the AKB domain with the PKA regulatory domains was detected as the co-transfected PKA regulatory domains co-localized to the mitochondria. […]

T1 sequence (P00514 2-135 limits assumed): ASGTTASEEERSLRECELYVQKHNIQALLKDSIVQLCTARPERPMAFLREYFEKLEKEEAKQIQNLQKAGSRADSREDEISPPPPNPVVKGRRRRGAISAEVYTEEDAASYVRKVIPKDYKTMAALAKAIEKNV

targeting of RIα to the mitochondria: decrease in mitochondrial localization
targeting of RIα to the mitochondria (listed as lie variant): unable to target RIα
B1: Ile (646) variant: D-AKAP2 AKB domain with Ile at amino acid 646 (SEQ ID NO:64), tested as GST fusion or mitochondria-targeted fusion construct (protein, listed as Homo sapiens)
chain: MRGAGPSPRQSPRTLRPDPGPAMSFFRRKVKGKEQEKTSDVKSIKASISVHSPQKSTKNHALLEAAGPSHVAINAISANMDSFSSSRTATLKKQPSHMEAAHFGDLGRSCLDYQTQETKSSLSKTLEQVLHDTIVLPYFIQFMELRRMEHLVKFWLEAESFHSTTWSRIRAHSLNTMKQSSLAEPVSPSKKHETTASFLTDSLDKRLEDSGSAQLFMTHSEGIDLNNRTNSTQNHLLLSQECDSAHSLRLEMARAGTHQVSMETQESSSTLTVASRNSPASPLKELSGKLMKSIEQDAVNTFTKYISPDAAKPIPITEAMRNDIIARICGEDGQVDPNCFVLAQSIVFSAMEQEHFSEFLRSHHFCKYQIEVLTSGTVYLADILFCESALFYFSEYMEKEDAVNILQFWLAADNFQSQLAAKKGQYDGQEAQNDAMILYDKYFSLQATHPLGFDDVVRLEIESNICREGGPLPNCFTTPLRQAWTTMEKVFLPGFLSSNLYYKYLNDLIHSVRGDEFLGGNVSPTAPGSVGPPDESHPGSSDSSASQSSVKKASIKILKNFDEAIIVDAASLDPESLYQRTYAGKMTFGRVSDLGQFIRESEPEPDVRKSKGSMFSQAMKKWVQGNTDEAQEELAWKIAKMIVSDIMQQAQYDQPLEKSTKL
modifications: GST or mitochondria-targeting fusion
